Source: article PMC9332313, “Folding and Binding Mechanisms of the SH2 Domain from Crkl” (Biomolecules, 2022)
Square brackets hold non-standard residues; d marks the D form. Ends that are not written are not given here. * marks the point of attachment. pY = N[C@@H](Cc1ccc(OP(=O)(O)O)cc1)C(=O)O; Dansyl = CN(C)c1cccc2c(S(=O)(=O)*)cccc12

Key:
Conditions in all cases: both partners purified
[1] = target: T1, SH2 domain of Crkl protein (residues 1-111), H33A variant (UniProt P46109 1-111, H33A); experiment: stopped-flow fluorescence kinetics (FRET); dansyl-Pax112-123 constant at 2 μM mixed with Crkl-SH2 2 to 10 μM (pseudo-first-order, kon); koff by displacement of the preincubated 2 µM complex with excess non-dansylated Pax112-123 (30 μM); 283 K; 50 mM sodium-HEPES pH 7.5, 0.5 M NaCl
T1 construct: Crkl adaptor protein, SH2 domain, residues 1-111, His33 replaced by alanine; Site-directed mutant of m1 (QuikChange); source: E. coli BL21 (DE3), purified (HisTrap nickel column, desalting); not shown: His tag, N-terminal, kept

[2] = target: T2, SH2 domain of Crkl protein (residues 1-111), wild type (UniProt P46109 1-111); experiment: as above
T2 construct: Crkl adaptor protein, SH2 domain, residues 1-111; Subcloned in pET28b+; all experiments were done on the N-terminally His-tagged protein; also called Crkl-SH2; Crkl SH2 domain; source: E. coli BL21 (DE3), purified (HisTrap nickel column, desalting); not shown: His tag, N-terminal, kept

[3] = target: T3, SH2 domain of Crkl protein (residues 1-111), H80A variant (UniProt P46109 1-111, H80A); experiment: as above
T3 construct: Crkl adaptor protein, SH2 domain, residues 1-111, His80 replaced by alanine; Site-directed mutant of m1 (QuikChange); source: E. coli BL21 (DE3), purified (HisTrap nickel column, desalting); not shown: His tag, N-terminal, kept

[4] = target: T4, SH2 domain of Crkl protein (residues 1-111), H91A variant (UniProt P46109 1-111, H91A); experiment: as above
T4 construct: Crkl adaptor protein, SH2 domain, residues 1-111, His91 replaced by alanine; Site-directed mutant of m1 (QuikChange); source: E. coli BL21 (DE3), purified (HisTrap nickel column, desalting); not shown: His tag, N-terminal, kept

[5] = target: T1, SH2 domain of Crkl protein (residues …); experiment: stopped-flow fluorescence kinetics (FRET); dansyl-Pax112-123 constant at 2 μM mixed with Crkl-SH2 2 to 10 μM (pseudo-first-order, kon); koff by displacement of the preincubated 2 µM complex with excess non-dansylated Pax112-123 (30 μM); 283 K; 50 mM TrisHCl pH 8.5, 0.5 M NaCl
[6] = target: T2, SH2 domain of Crkl protein (residues …); experiment: as above
[7] = target: T3, SH2 domain of Crkl protein (residues …); experiment: as above
[8] = target: T4, SH2 domain of Crkl protein (residues …); experiment: as above
[9] = target: T3, SH2 domain of Crkl protein (residues …); experiment: stopped-flow fluorescence kinetics (FRET); dansyl-Pax112-123 constant at 2 μM mixed with Crkl-SH2 2 to 10 μM (pseudo-first-order, kon); koff by displacement of the preincubated 2 µM complex with excess non-dansylated Pax112-123 (30 μM); 283 K; 50 mM sodium-acetate pH 5.5, 0.5 M NaCl
[10] = target: T2, SH2 domain of Crkl protein (residues …); experiment: stopped-flow fluorescence kinetics (FRET); dansyl-Pax112-123 constant at 2 μM mixed with Crkl-SH2 2 to 10 μM (pseudo-first-order, kon); koff by displacement of the preincubated 2 µM complex with excess non-dansylated Pax112-123 (30 μM); 283 K; 50 mM BisTRIS pH 6.0, 0.5 M NaCl

T4 sequence (P46109 1-111 H91A): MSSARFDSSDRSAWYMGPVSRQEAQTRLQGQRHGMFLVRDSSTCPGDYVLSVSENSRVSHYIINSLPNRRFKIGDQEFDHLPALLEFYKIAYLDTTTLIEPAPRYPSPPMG
T3 sequence (P46109 1-111 H80A): as the sequence (P46109 1-111 H91A) above, with H80A, A91H counted along it
T2 sequence (P46109 1-111): as the sequence (P46109 1-111 H91A) above, with A91H counted along it
T1 sequence (P46109 1-111 H33A): as the sequence (P46109 1-111 H91A) above, with H33A, A91H counted along it

B1: dansylated Pax_(112–123) peptide (Dans-GEEEHV-pY-SFPNK) (peptide)
peptide: Dansyl-GEEEHV[pY]SFPNK
notes: The dansyl group is the FRET acceptor of Trp14 of the SH2 domain; source: synthetic peptide, bought: GenScript
Kd [1]: 2300 ± 500 nM
koff [1]: 24.6 ± 3.2 s⁻¹
kon [1]: 1.08e+07 ± 1.9e+06 M⁻¹ s⁻¹
Kd [2]: 2800 ± 400 nM
koff [2]: 28.6 ± 0.5 s⁻¹
kon [2]: 1.04e+07 ± 1.4e+06 M⁻¹ s⁻¹
Kd [3]: 2000 ± 200 nM
koff [3]: 27.8 ± 2.3 s⁻¹
kon [3]: 1.36e+07 ± 1.1e+06 M⁻¹ s⁻¹
Kd [4]: 2600 ± 100 nM
koff [4]: 25.9 ± 0.3 s⁻¹
kon [4]: 1e+07 ± 500000 M⁻¹ s⁻¹
Kd [5]: 2100 ± 300 nM
koff [5]: 26.9 ± 2.8 s⁻¹
kon [5]: 1.26e+07 ± 1.4e+06 M⁻¹ s⁻¹
Kd [6]: 3500 ± 300 nM
koff [6]: 41.6 ± 0.9 s⁻¹
kon [6]: 1.2e+07 ± 1.1e+06 M⁻¹ s⁻¹
Kd [7]: 3200 ± 500 nM
koff [7]: 32.5 ± 2.7 s⁻¹
kon [7]: 1.02e+07 ± 1.2e+06 M⁻¹ s⁻¹
Kd [8]: 2600 ± 100 nM
koff [8]: 34.9 ± 0.5 s⁻¹
kon [8]: 1.36e+07 ± 600000 M⁻¹ s⁻¹
Kd [9]: 2500 ± 500 nM
koff [9]: 20 ± 3.7 s⁻¹
kon [9]: 7.9e+06 ± 900000 M⁻¹ s⁻¹
Kd [10]: 2600 ± 200 nM
koff [10]: 20.8 ± 0.3 s⁻¹
kon [10]: 7.9e+06 ± 600000 M⁻¹ s⁻¹
